Our source for the IC50 (neutralization, IIF infection foci count, InCellAnalyzer) values is patent US20190185546A1.

Assay [1] has as its target HSV-1 (Herpes Simplex Virus type 1; antigen recognised not identified) (Herpes simplex virus 1). Put plainly: cell-based or functional assay.
Assay [2] concerns the target HSV-2 (Herpes Simplex Virus type 2; antigen recognised not identified) (Herpes simplex virus 2). Put plainly: cell-based or functional assay.

B1: Fab Ex2 (IgG1 Fab format) (Fab, V domains shown)
VH: LESGGGVVQPGRSLRLSCAASGFTFTTFAMHWVRQAPGKGLEWLAFISYDGSNKYYADSVKGRFTISRDNSKNTLYLQMNSLRAEDTSIYYCAREVWNYADYWGQGALVTVSS
VL: ELTQSPGTLSSSPGHRATLSCKASAPLGSNHMAWYQQKPGQAPRLLIYGASTRATGVPARFTGSGSGTDFTLTISSLQPEDFATYYCQQANSFPRTFGQGTKVEIK
B1: the IC50 (neutralization, IIF infection foci count, InCellAnalyzer) in assay [1] stood at 0.7 µg/mL; in assay [2], 0.2 µg/mL.
